Assay results reported in the supplement of paper PMC10567573.

B1: MED27 (parent)
chain: YNENVYTEDGKLDIWSKSNYQVFQ

Variants of: B1
Experiment: protein stability index of a GFP-peptide fusion (GPS, HEK-293T) (PSI 1-6); higher = more stable
Details: c terminus: a fixed tail appended
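Further: lentivirally expressed fusions sorted by FACS into six bins by GFP to DsRed ratio, PSI derived from sequencing read proportions per bin multiplied by bin number.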

Variant | protein stability index
YQENVYTEDGKLDIWSKSNYQVFQ | 2.33
YSENVYTEDGKLDIWSKSNYQVFQ | 2.02
YFENVYTEDGKLDIWSKSNYQVFQ | 2.26
YKENVYTEDGKLDIWSKSNYQVFQ | 2.91
YYENVYTEDGKLDIWSKSNYQVFQ | 2.1
YCENVYTEDGKLDIWSKSNYQVFQ | 2.47
YLENVYTEDGKLDIWSKSNYQVFQ | 1.68
YEENVYTEDGKLDIWSKSNYQVFQ | 3.95
YDENVYTEDGKLDIWSKSNYQVFQ | 3.6
YHENVYTEDGKLDIWSKSNYQVFQ | 1.75
YWENVYTEDGKLDIWSKSNYQVFQ | 1.69
YPENVYTEDGKLDIWSKSNYQVFQ | 2.09
YVENVYTEDGKLDIWSKSNYQVFQ | 3.18
YIENVYTEDGKLDIWSKSNYQVFQ | 1.68
YMENVYTEDGKLDIWSKSNYQVFQ | 2.01
YTENVYTEDGKLDIWSKSNYQVFQ | 1.95
YRENVYTEDGKLDIWSKSNYQVFQ | 2.4
YAENVYTEDGKLDIWSKSNYQVFQ | 2.53
YGENVYTEDGKLDIWSKSNYQVFQ | 1.75
YNERVYTEDGKLDIWSKSNYQVFQ | 2.31
YNEDVYTEDGKLDIWSKSNYQVFQ | 2.21
YNEQVYTEDGKLDIWSKSNYQVFQ | 2.53
YNEFVYTEDGKLDIWSKSNYQVFQ | 1.93
YNEHVYTEDGKLDIWSKSNYQVFQ | 2.04

Variant | protein stability index
YNESVYTEDGKLDIWSKSNYQVFQ | 1.52
YNECVYTEDGKLDIWSKSNYQVFQ | 2.29
YNEIVYTEDGKLDIWSKSNYQVFQ | 2.04
YNELVYTEDGKLDIWSKSNYQVFQ | 1.99
YNEGVYTEDGKLDIWSKSNYQVFQ | 2.37
YNEMVYTEDGKLDIWSKSNYQVFQ | 2
YNEWVYTEDGKLDIWSKSNYQVFQ | 1.15
YNEKVYTEDGKLDIWSKSNYQVFQ | 1.8
YNETVYTEDGKLDIWSKSNYQVFQ | 2.21
YNEPVYTEDGKLDIWSKSNYQVFQ | 1.96
YNEAVYTEDGKLDIWSKSNYQVFQ | 2.54
YNEYVYTEDGKLDIWSKSNYQVFQ | 1.47
YNEEVYTEDGKLDIWSKSNYQVFQ | 2.73
YNEVVYTEDGKLDIWSKSNYQVFQ | 1.89
ENENVYTEDGKLDIWSKSNYQVFQ | 4.04
ANENVYTEDGKLDIWSKSNYQVFQ | 2.86
WNENVYTEDGKLDIWSKSNYQVFQ | 2.93
VNENVYTEDGKLDIWSKSNYQVFQ | 3.67
QNENVYTEDGKLDIWSKSNYQVFQ | 3.74
HNENVYTEDGKLDIWSKSNYQVFQ | 3.23
DNENVYTEDGKLDIWSKSNYQVFQ | 3.38
INENVYTEDGKLDIWSKSNYQVFQ | 2.5
LNENVYTEDGKLDIWSKSNYQVFQ | 3.2
SNENVYTEDGKLDIWSKSNYQVFQ | 3.23

Variant | protein stability index
GNENVYTEDGKLDIWSKSNYQVFQ | 3.7
RNENVYTEDGKLDIWSKSNYQVFQ | 3.11
MNENVYTEDGKLDIWSKSNYQVFQ | 3.52
PNENVYTEDGKLDIWSKSNYQVFQ | 3.52
NNENVYTEDGKLDIWSKSNYQVFQ | 3.35
FNENVYTEDGKLDIWSKSNYQVFQ | 2.27
TNENVYTEDGKLDIWSKSNYQVFQ | 3.4
CNENVYTEDGKLDIWSKSNYQVFQ | 2.9
KNENVYTEDGKLDIWSKSNYQVFQ | 3.28
YNENVYTCDGKLDIWSKSNYQVFQ | 2.18
YNENVYTADGKLDIWSKSNYQVFQ | 2.33
YNENVYAEDGKLDIWSKSNYQVFQ | 2.21
YNENVYSEDGKLDIWSKSNYQVFQ | 1.95
YNENVYFEDGKLDIWSKSNYQVFQ | 2.13
YNENVYCEDGKLDIWSKSNYQVFQ | 2.63
YNENVYMEDGKLDIWSKSNYQVFQ | 1.75
YNENVYNEDGKLDIWSKSNYQVFQ | 2.14
YNENVYQEDGKLDIWSKSNYQVFQ | 2.48
YNENVYEEDGKLDIWSKSNYQVFQ | 2.96
YNENVYIEDGKLDIWSKSNYQVFQ | 1.72
YNENVYVEDGKLDIWSKSNYQVFQ | 2.05
YNENVYKEDGKLDIWSKSNYQVFQ | 2.35
YNENVYWEDGKLDIWSKSNYQVFQ | 1.07
YNENVYREDGKLDIWSKSNYQVFQ | 2.06

Variant | protein stability index
YNENVYYEDGKLDIWSKSNYQVFQ | 2.46
YNENVYGEDGKLDIWSKSNYQVFQ | 2.53
YNENVYDEDGKLDIWSKSNYQVFQ | 2.7
YNENVYLEDGKLDIWSKSNYQVFQ | 1.8
YNENVYPEDGKLDIWSKSNYQVFQ | 2.21
YNENVYHEDGKLDIWSKSNYQVFQ | 2.11
YNENHYTEDGKLDIWSKSNYQVFQ | 2.95
YNENMYTEDGKLDIWSKSNYQVFQ | 2.1
YNENRYTEDGKLDIWSKSNYQVFQ | 2.25
YNENPYTEDGKLDIWSKSNYQVFQ | 2.35
YNENSYTEDGKLDIWSKSNYQVFQ | 2.34
YNENQYTEDGKLDIWSKSNYQVFQ | 3.06
YNENAYTEDGKLDIWSKSNYQVFQ | 2.47
YNENFYTEDGKLDIWSKSNYQVFQ | 1.72
YNENNYTEDGKLDIWSKSNYQVFQ | 3.01
YNENIYTEDGKLDIWSKSNYQVFQ | 2.73
YNENLYTEDGKLDIWSKSNYQVFQ | 2.21
YNENWYTEDGKLDIWSKSNYQVFQ | 1.91
YNENEYTEDGKLDIWSKSNYQVFQ | 3.28
YNENGYTEDGKLDIWSKSNYQVFQ | 2.71
YNENYYTEDGKLDIWSKSNYQVFQ | 1.97
YNENCYTEDGKLDIWSKSNYQVFQ | 2.05
